Measurements from the Human Domainome abundance scans (Beltran et al. 2025).
± gives the uncertainty stated by the source.

B1: Pre-mRNA-processing factor 40 homolog B, residues 274 to 332; numbered along this chain, Q6NWY9 (parent)
chain: SNREKAKQAFKELLRDKAVPSNASWEQAMKMVVTDPRYSALPKLSEKKQAFNAYKAQRE
B2: Lysine-specific demethylase 5C, residues 319 to 373; numbered along this chain, P41229 (parent)
chain: AQFIESYVCRMCSRGDEDDKLLLCDGCDDNYHIFCLLPPLPEIPKGVWRCPKCVM

Variants of: B1
Test: abundance fitness (aPCA) (normalised: wild type 0, dead -1); higher = more abundant; growth selection in yeast, the domain comes from the species named
Settings: Homo sapiens

| Variant | abundance fitness |
| --- | --- |
| Q49S | -0.162 ± 0.098 |
| Q49T | -0.364 ± 0.15 |
| Q49V | -0.205 ± 0.087 |
| Q49W | -0.643 ± 0.1 |
| Q49Y | -0.544 ± 0.24 |
| A50C | -0.008 ± 0.1 |
| A50D | -0.299 ± 0.13 |
| A50E | -0.224 ± 0.14 |
| A50F | -0.485 ± 0.19 |
| A50G | -0.462 ± 0.066 |
| A50H | -0.606 ± 0.28 |
| A50I | -0.194 ± 0.15 |
| A50K | -0.765 ± 0.12 |
| A50L | -0.084 ± 0.075 |
| A50M | -0.076 ± 0.097 |
| A50N | -0.629 ± 0.13 |
| A50P | -0.351 ± 0.12 |
| A50Q | -0.212 ± 0.084 |
| A50R | -0.818 ± 0.072 |
| A50S | -0.382 ± 0.074 |
| A50T | -0.43 ± 0.1 |
| A50W | -0.627 ± 0.089 |
| A50Y | -0.895 ± 0.23 |
| F51G | -0.28 ± 0.35 |
| F51K | -0.371 ± 0.22 |

| Variant | abundance fitness |
| --- | --- |
| F51S | -0.463 ± 0.41 |
| F51W | -0.61 ± 0.33 |
| N52A | -0.09 ± 0.079 |
| N52C | -0.129 ± 0.15 |
| N52D | -0.038 ± 0.12 |
| N52E | 0.253 ± 0.073 |
| N52F | -0.901 ± 0.49 |
| N52G | -0.282 ± 0.065 |
| N52H | -0.053 ± 0.18 |
| N52K | 0.031 ± 0.12 |
| N52L | -0.04 ± 0.092 |
| N52M | 0.039 ± 0.18 |
| N52P | -0.367 ± 0.096 |
| N52Q | 0.062 ± 0.15 |
| N52R | -0.053 ± 0.066 |
| N52S | -0.072 ± 0.075 |
| N52T | -0.231 ± 0.1 |
| N52V | -0.11 ± 0.083 |
| N52W | -0.431 ± 0.085 |
| N52Y | -0.21 ± 0.14 |
| A53D | 0.042 ± 0.1 |
| A53E | 0.317 ± 0.08 |
| A53F | -0.835 ± 0.18 |
| A53G | -0.293 ± 0.052 |
| A53H | -0.476 ± 0.26 |

| Variant | abundance fitness |
| --- | --- |
| A53I | -0.372 ± 0.15 |
| A53K | -0.174 ± 0.1 |
| A53L | -0.314 ± 0.074 |
| A53M | -0.394 ± 0.1 |
| A53N | -0.079 ± 0.16 |
| A53P | -0.494 ± 0.11 |
| A53R | -0.452 ± 0.065 |
| A53S | -0.089 ± 0.079 |
| A53V | -0.274 ± 0.071 |
| A53Y | -0.524 ± 0.19 |
| Y54E | -0.363 ± 0.36 |
| Y54L | -0.085 ± 0.4 |
| K55A | -0.304 ± 0.063 |
| K55C | 0.12 ± 0.11 |
| K55D | -0.29 ± 0.11 |
| K55E | -0.333 ± 0.08 |
| K55F | -0.652 ± 0.17 |
| K55H | -0.258 ± 0.19 |
| K55I | -0.11 ± 0.095 |
| K55M | -0.356 ± 0.1 |
| K55N | -0.337 ± 0.12 |
| K55P | -0.359 ± 0.093 |
| K55Q | -0.239 ± 0.12 |
| K55R | -0.18 ± 0.057 |
| K55S | -0.25 ± 0.075 |

| Variant | abundance fitness |
| --- | --- |
| K55T | -0.242 ± 0.091 |
| K55V | -0.139 ± 0.061 |
| K55W | -0.947 ± 0.11 |
| K55Y | -0.644 ± 0.18 |
| A56C | -0.451 ± 0.12 |
| A56F | -0.526 ± 0.16 |
| A56G | -0.242 ± 0.053 |
| A56H | -0.102 ± 0.13 |
| A56I | -0.261 ± 0.12 |
| A56K | -0.015 ± 0.086 |
| A56L | 0.034 ± 0.074 |
| A56M | -0.127 ± 0.097 |
| A56N | -0.18 ± 0.13 |
| A56P | -0.454 ± 0.1 |
| A56Q | 0.027 ± 0.086 |
| A56R | -0.116 ± 0.057 |
| A56S | -0.016 ± 0.069 |
| A56T | -0.122 ± 0.099 |
| A56V | -0.076 ± 0.069 |
| A56W | -0.293 ± 0.079 |
| A56Y | -0.351 ± 0.13 |
| Q57A | 0.046 ± 0.056 |
| Q57C | -0.156 ± 0.075 |
| Q57D | 0.158 ± 0.097 |
| Q57E | 0.248 ± 0.078 |

| Variant | abundance fitness |
| --- | --- |
| Q57F | -0.514 ± 0.12 |
| Q57H | -0.149 ± 0.11 |
| Q57I | -0.565 ± 0.1 |
| Q57L | -0.527 ± 0.066 |
| Q57M | -0.322 ± 0.091 |
| Q57N | -0.163 ± 0.092 |
| Q57P | -0.249 ± 0.071 |
| Q57R | -0.286 ± 0.05 |
| Q57S | 0.027 ± 0.059 |
| Q57T | -0.165 ± 0.074 |
| Q57V | -0.257 ± 0.057 |
| Q57W | -0.138 ± 0.066 |
| Q57Y | -0.715 ± 0.11 |
| R58A | 0.188 ± 0.088 |
| R58C | 0.26 ± 0.13 |
| R58D | -0.244 ± 0.21 |
| R58F | -0.162 ± 0.22 |
| R58G | 0.093 ± 0.071 |
| R58H | -0.013 ± 0.27 |
| R58I | -0.648 ± 0.29 |
| R58K | 0.008 ± 0.23 |
| R58L | 0.212 ± 0.1 |
| R58M | 0.184 ± 0.13 |
| R58P | -0.018 ± 0.11 |
| R58Q | 0.16 ± 0.12 |

| Variant | abundance fitness |
| --- | --- |
| R58S | -0.008 ± 0.093 |
| R58T | -0.108 ± 0.14 |
| R58V | 0.085 ± 0.1 |
| R58W | 0.061 ± 0.087 |
| R58Y | 0.1 ± 0.28 |
| E59A | 0.184 ± 0.14 |
| E59C | -0.216 ± 0.29 |
| E59D | -0.203 ± 0.16 |
| E59F | -0.53 ± 0.23 |
| E59G | -0.212 ± 0.074 |
| E59H | -0.204 ± 0.22 |
| E59K | 0.055 ± 0.25 |
| E59L | -0.424 ± 0.14 |
| E59M | 0.167 ± 0.41 |
| E59Q | -0.033 ± 0.13 |
| E59R | -0.189 ± 0.074 |
| E59S | -0.397 ± 0.13 |
| E59T | -0.109 ± 0.13 |
| E59V | 0.042 ± 0.1 |
| E59W | -0.54 ± 0.13 |

Variants of: B2
Test: as above
Settings: Homo sapiens

| Variant | abundance fitness |
| --- | --- |
| P41E | -0.278 ± 0.19 |
| G26K | 0.133 ± 0.14 |
| S13K | -0.196 ± 0.26 |
| L36R | -0.732 ± 0.14 |
| R10Q | -0.609 ± 0.45 |
| V47F | 0.082 ± 0.23 |
| C53D | -0.889 ± 0.28 |
| G15M | -0.142 ± 0.1 |
| D29G | -0.077 ± 0.21 |
| K20G | -0.666 ± 0.2 |
| G15A | -0.037 ± 0.084 |
| V8E | -0.266 ± 0.18 |
| D19T | 0.242 ± 0.097 |
| Y31Q | -0.727 ± 0.14 |
| P38C | -0.166 ± 0.13 |
| K20H | -0.103 ± 0.19 |
| L36S | -0.157 ± 0.091 |
| R10V | -0.137 ± 0.16 |
| L21I | -0.044 ± 0.12 |
| N30M | -0.206 ± 0.13 |
| C12K | -0.435 ± 0.18 |
| E42A | -0.05 ± 0.15 |
